B1: nicked 32-bp dsDNA probe (dsDNA)
DNA 1: GGTAGCCACAGCCAGTCAGCCGATTGCGGGAC
DNA 2: GTCCCGCAATCGGCTG
DNA 3: ACTGGCTGTGGCTACC
modifications: 5'-phosphate on S6 at the nick
B2: intact (unnicked) 32-bp dsDNA probe (dsDNA)
DNA 1: GGTAGCCACAGCCAGTCAGCCGATTGCGGGAC
DNA 2: GTCCCGCAATCGGCTGACTGGCTGTGGCTACC

Key:
Assay in all cases: fluorescence anisotropy
[1] = molecular target: Human DNA ligase 1 (hLig1) (human, UniProt P18858 233-919)
[2] = molecular target: T1, T4 DNA ligase (gp30), full-length wild type (Bacteriophage T4 (ATCC), UniProt P00970 1-487)
T1 sequence: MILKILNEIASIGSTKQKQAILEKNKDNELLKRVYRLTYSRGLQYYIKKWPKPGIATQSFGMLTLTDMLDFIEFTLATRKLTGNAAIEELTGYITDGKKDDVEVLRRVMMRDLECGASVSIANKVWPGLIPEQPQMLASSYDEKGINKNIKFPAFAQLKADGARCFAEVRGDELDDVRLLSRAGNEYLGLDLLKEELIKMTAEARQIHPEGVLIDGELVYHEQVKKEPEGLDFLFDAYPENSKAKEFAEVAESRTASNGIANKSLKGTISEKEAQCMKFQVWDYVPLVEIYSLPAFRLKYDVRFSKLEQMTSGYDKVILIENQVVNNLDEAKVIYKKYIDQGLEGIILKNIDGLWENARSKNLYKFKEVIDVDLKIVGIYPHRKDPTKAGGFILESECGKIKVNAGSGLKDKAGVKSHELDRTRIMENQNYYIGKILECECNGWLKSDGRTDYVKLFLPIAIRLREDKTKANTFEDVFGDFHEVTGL

[3] = molecular target: T2, T4 DNA ligase DBD fragment (Bacteriophage T4 (ATCC), UniProt P00970 1-129)
T2 sequence: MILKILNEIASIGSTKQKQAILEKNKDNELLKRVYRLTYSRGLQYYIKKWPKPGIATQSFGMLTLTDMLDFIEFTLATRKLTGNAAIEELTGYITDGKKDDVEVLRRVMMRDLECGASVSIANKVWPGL

[4] = molecular target: T3, T4 DNA ligase NTase-OB fragment (2CT) (Bacteriophage T4 (ATCC), UniProt P00970 136-487)
T3 sequence: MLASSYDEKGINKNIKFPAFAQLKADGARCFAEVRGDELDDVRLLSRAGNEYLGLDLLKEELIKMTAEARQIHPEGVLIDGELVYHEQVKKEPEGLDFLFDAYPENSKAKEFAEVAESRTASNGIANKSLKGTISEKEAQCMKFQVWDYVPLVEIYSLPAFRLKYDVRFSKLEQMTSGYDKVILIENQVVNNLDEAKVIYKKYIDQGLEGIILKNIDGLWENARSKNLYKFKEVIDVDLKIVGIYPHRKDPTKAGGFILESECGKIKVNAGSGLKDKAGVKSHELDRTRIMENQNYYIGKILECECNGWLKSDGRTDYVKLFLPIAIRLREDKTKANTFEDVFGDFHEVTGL

Human DNA ligase 1 (hLig1), sequence (P18858 233-919): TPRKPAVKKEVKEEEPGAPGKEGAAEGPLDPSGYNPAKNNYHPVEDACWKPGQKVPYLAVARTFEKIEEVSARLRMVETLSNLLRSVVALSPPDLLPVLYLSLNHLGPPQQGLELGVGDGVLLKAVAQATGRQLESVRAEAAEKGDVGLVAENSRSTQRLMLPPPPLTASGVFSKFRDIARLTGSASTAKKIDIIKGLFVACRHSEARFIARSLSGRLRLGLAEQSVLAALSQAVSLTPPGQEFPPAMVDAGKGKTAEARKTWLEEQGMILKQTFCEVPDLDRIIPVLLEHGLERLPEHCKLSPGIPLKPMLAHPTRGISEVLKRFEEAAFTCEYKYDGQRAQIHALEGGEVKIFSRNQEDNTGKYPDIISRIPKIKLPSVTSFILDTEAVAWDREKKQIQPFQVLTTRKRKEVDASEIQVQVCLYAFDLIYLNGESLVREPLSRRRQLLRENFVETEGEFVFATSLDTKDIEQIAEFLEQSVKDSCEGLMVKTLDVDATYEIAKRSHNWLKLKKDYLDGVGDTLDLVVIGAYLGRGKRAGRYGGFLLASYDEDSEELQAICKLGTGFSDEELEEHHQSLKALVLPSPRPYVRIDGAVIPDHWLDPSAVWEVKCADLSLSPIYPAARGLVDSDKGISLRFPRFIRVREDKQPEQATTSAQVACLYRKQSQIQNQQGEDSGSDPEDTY

Binder | Kd [1] [µM] | Kd [2] [µM] | Kd [3] [µM] | Kd [4] [µM]
B1 | 7.7 | 6.3 | 138 | 23
B2 | 11 | 6.6 | 119 | 17

Reference: article PMC6212786
